From publication PMC11188170, “A comprehensive analysis of the WRKY family in soybean and functional analysis of GmWRKY164-GmGSL7c in resistance to soybean mosaic virus”

Molecular target: GmWRKY164 (Glycine max, UniProt K7MND9 1-149)
Assay: EMSA; 6 ug protein; 200-fold unlabelled probe used as competitor; LightShift Chemiluminescent EMSA kit binding reaction, 20 min, 6% native PAGE; buffer, salt, pH and temperature not stated
Details: protein: recombinant; tags: His; label: 5' biotin; blunt

GmWRKY164, sequence (K7MND9 entry or part of it): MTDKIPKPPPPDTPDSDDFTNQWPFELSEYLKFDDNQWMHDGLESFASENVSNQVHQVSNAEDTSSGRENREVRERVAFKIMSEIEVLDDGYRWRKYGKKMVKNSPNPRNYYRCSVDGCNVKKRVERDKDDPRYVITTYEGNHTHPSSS

B1: GmGSL7c promoter W-box probe (dsDNA)
DNA 1: TAGCCCAACTCATCAGAAGAAGGTCAATGTAATAGTA
DNA 2: TACTATTACATTGACCTTCTTCTGATGAGTTGGGCTA
B1: binds.
